Consider one substance from PMC7040040.

As a reminder, the Kd is the free concentration of one partner at which half of the binding sites on the other are occupied at equilibrium, for simple one-to-one binding. A lower Kd goes with tighter binding.

For assay [1], the target named is humanized PBD-C06 with A97 of the VH framework substituted by murine T97 (human). Nature of the assay: SPR; Biacore 3000; antibody captured on a CM5 chip via immobilised anti-mouse or anti-human antibody; monomeric Aβ peptides injected (240 µl, 30 µl/min), running buffer HBS-EP; 1:1 Langmuir binding model. (SPR reads the build-up and loss of mass on a sensor chip optically.)
humanized PBD-C06 with A97 of the VH framework substituted by murine T97 (human), sequence (heavy, as listed by the source, chain 1 of 2): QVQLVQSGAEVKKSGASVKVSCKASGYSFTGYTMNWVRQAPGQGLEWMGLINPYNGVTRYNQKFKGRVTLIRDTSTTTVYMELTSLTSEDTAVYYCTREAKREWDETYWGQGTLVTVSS
humanized PBD-C06 with A97 of the VH framework substituted by murine T97 (human), sequence (light, as listed by the source, chain 2 of 2): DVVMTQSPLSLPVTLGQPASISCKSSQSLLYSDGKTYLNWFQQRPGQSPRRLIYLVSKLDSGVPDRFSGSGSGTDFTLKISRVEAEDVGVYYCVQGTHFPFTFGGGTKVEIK

In assay [2] the target is humanized PBD-C06 (CDR-grafted IgG1:kappa version) (human). The assay is described as above.
humanized PBD-C06 (CDR-grafted IgG1:kappa version) (human), sequence (heavy, as listed by the source, chain 1 of 2): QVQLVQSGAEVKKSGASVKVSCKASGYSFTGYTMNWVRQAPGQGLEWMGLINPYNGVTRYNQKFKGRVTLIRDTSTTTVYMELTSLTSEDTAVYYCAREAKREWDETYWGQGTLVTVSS
humanized PBD-C06 (CDR-grafted IgG1:kappa version) (human), sequence (light, as listed by the source, chain 2 of 2): as the sequence (light, as listed by the source, chain 2 of 2) above

For pE3-Aβ(3–18) monomer (peptide), the results for the Kd in assay [1] and in assay [2] were 5.3 nM and 43.5 nM, respectively.
